Test results as given in paper PMC11577753, “Identification and characterization of a novel formaldehyde dehydrogenase in Bacillus subtilis” (Applied and Environmental Microbiology, 2024).

Substrate: C=O
Experiment: purified protein
Format: biochemical, Bacillus subtilis
Conditions: 10 mM NAD+, 50 mM BISTRIS propane pH 9.0, 25 mM NaCl, 37 °C (Fig 6 legend; methods say 40 °C)

B1: YycR (Bacillus subtilis subsp. subtilis str. 168) (protein)
chain: MGGMALTGNKAVVYKGKGTVAVEDIGYPELILRDGPGVPKANVNRKCEHGVILKVITTNICGSDQHMVRGRTTAPEGLVLGHEITGEVIETGRDVEFIKKGDIVSVPFNIACGRCVMCKTQKTHVCLNVNPDRPGSAYGYVDMGGWVGGQSEYVMVPYADFQLLVFPDKEQALEKILDLTMLSDIFPTGFHGAYTAGVQTGSTVYIAGAGPVGLAAAHSAQLLGASTVIVGDLNEDRLAQARSFGCETVNVQKHDRLGEQIEQILGEPTVDAAVDCVGFEASGHGNQGEAPAAVLNSIMDVTQVGGSLGIPGLYVTEDPGAKDADAKTGSLKIRFGLGWAKAHTFVTGQTPAMTYNRNLMKAILSGRAQIAKAVNATVISLDDAPKGYSDFDKGAAKKFVIDPHGTLK
notes: full-length, C-terminal His tag (pNIC-CH) kept, E. coli T7 Express, HisTrap purified, 44 kDa; zinc-type, metal as purified
Protein B1 has a Km of 0.19 ± 0.05 mM and a kcat of 0.52 s⁻¹.
